Laboratory results: US20140039042, “BISPECIFIC APTAMERS MEDIATING TUMOUR CELL LYSIS” (MERCK PATENT GMBH, published 2014)

Key:
[1] = biological target: T1, c-Met Fc fusion (UniProt P08581 P08581:25-932); experiment: filter; picomolar Kd, number only in figure; conditions: tags: Fc-His fusion; chain copies: 2
[2] = biological target: T2, CD16α (FcγRIIIa) V158 allotype, CD16α-6His (UniProt P08637 P08637:17-208); experiment: filter; dot blot; allotype not specified for this assay; conditions: tags: 6His
[3] = biological target: T1, c-Met Fc fusion; experiment: filter; picomolar Kd, number only in figure; EMSA also shows binding; conditions: tags: Fc-His fusion; chain copies: 2
[4] = biological target: T1, c-Met Fc fusion; experiment: filter; dot blot; conditions: tags: Fc-His fusion; chain copies: 2
[5] = biological target: T1, c-Met Fc fusion; experiment: filter; c-Met aptamer at 3' end performed best; dot blot; conditions: tags: Fc-His fusion; chain copies: 2
[6] = biological target: T1, c-Met Fc fusion; experiment: filter; nearly similar affinity as full length; conditions: tags: Fc-His fusion; chain copies: 2
[7] = biological target: T2, CD16α (FcγRIIIa) V158 allotype, …; experiment: filter; 45±28 nM, n=10, dot blot; conditions: tags: 6His
[8] = biological target: CD16β (FcγRIIIb) (UniProt O75015 O75015:17-200); experiment: filter; dot blot; conditions: tags: 10His
[9] = biological target: T1, c-Met Fc fusion; experiment: filter; 91±40 pM, n=3, dot blot; heading cites SEQ ID NO 53 but CLN0003 is SEQ 52; conditions: tags: Fc-His fusion; chain copies: 2
[10] = biological target: T2, CD16α (FcγRIIIa) V158 allotype, …; experiment: filter; dot blot; conditions: tags: 6His
[11] = biological target: T1, c-Met Fc fusion; experiment: filter; dot blot; picomolar; conditions: tags: Fc-His fusion; chain copies: 2
[12] = biological target: T2, CD16α (FcγRIIIa) V158 allotype, …; experiment: filter; 38±26 nM, n=4, dot blot; broad unspecific cell binding in FACS; conditions: tags: 6His
[13] = biological target: T1, c-Met Fc fusion; experiment: filter; 11±6 nM, n=6, dot blot; FIG. 2 legend gives 57 nM; heading cites SEQ ID NO 54 but CLN0004 is SEQ 53; conditions: tags: Fc-His fusion; chain copies: 2
[14] = biological target: T1, c-Met Fc fusion; experiment: filter; complete loss of binding, dot blot; conditions: tags: Fc-His fusion; chain copies: 2

T1 sequence (P08581 25-932, one chain of several): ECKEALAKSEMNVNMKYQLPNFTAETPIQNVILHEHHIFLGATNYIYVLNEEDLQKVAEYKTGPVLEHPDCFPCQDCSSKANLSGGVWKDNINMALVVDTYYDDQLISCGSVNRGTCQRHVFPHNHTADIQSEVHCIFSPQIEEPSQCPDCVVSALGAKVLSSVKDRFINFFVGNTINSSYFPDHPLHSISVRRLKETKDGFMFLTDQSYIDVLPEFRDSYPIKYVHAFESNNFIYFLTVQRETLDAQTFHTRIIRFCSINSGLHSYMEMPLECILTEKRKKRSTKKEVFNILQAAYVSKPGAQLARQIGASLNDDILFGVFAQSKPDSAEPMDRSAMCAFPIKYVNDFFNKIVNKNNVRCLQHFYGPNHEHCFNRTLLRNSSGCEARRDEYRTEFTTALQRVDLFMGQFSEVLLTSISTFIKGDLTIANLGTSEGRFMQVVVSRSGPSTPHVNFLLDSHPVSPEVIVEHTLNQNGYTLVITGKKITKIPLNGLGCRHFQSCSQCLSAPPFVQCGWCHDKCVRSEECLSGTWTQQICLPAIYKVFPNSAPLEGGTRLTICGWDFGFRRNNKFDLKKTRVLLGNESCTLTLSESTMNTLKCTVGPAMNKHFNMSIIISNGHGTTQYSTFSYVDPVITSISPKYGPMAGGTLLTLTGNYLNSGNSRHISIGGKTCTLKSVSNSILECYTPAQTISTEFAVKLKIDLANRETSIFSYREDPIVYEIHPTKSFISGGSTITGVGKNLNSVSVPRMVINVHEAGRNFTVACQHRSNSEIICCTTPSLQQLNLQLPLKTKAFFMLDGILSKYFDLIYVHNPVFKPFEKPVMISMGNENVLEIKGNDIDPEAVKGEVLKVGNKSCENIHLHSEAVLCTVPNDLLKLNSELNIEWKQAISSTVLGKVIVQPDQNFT
Sequence of CD16β (FcγRIIIb) (O75015 17-200, one chain of several): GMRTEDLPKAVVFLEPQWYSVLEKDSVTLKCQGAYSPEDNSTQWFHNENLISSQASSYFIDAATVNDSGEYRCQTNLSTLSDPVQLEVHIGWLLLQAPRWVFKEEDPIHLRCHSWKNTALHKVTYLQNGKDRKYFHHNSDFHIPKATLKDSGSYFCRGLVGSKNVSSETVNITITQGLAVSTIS
T2 sequence (P08637 17-208, one chain of several): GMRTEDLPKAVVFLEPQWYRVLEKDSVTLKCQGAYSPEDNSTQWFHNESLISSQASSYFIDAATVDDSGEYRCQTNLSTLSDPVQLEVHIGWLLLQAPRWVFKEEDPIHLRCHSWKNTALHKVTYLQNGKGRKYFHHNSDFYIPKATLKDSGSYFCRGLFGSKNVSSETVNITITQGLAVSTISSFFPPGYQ

B1: bsA10 (ssDNA)
DNA: GGAGGGAAAAGTTATCAGGCTGGATGGTAGCTCGGTCGGGGTGGGTGGGTTGGCAAGTCTGATTAGTTTTGGAGTACTCGCTCCGGAGGGAAAAGTTATCAGGCCACTGCGGGGGTCTATACGTGAGGAAGAAGTGGGCAGGTCGATTAGTTTTGGAGTACTCGCTCC
Q: Does B1 bind [1]?
A: binds

B2: bsA15 (ssDNA)
DNA: GGAGGGAAAAGTTATCAGGCAGAGGGGAGGGTCGGGTATCGGCGTGTTCGGGGGATCTGCGATTAGTTTTGGAGTACTCGCTCCGGAGGGAAAAGTTATCAGGCTGGATGGTAGCTCGGTCGGGGTGGGTGGGTTGGCAAGTCTGATTAGTTTTGGAGTACTCGCTCC
Q: For B2, which Kd [2] is on record?
A: 174 nM

Q: For CCACTGCGGGGGTCTATACGTGAGGAAGAAGTGG (ssDNA) [-19CLN0020-31 (34mer, MS3)], which Kd [2] is on record?
A: 47 nM

B3: bsA22 (ssDNA)
DNA: CCACTGCGGGGGTCTATACGTGAGGAAGAAGTGGAAAAAAAAAAAAAAAGGAGGGAAAAGTTATCAGGCTGGATGGTAGCTCGGTCGGGGTGGGTGGGTTGGCAAGTCTGATTAGTTTTGGAGTACTCGCTCC
Q: Does B3 bind [3]?
A: binds

B4: bsA13 (ssDNA)
DNA: GAGTGCGTAATGGTACGATTTGGGAAGTGGCTTGGGGTGGGATTAGTTTTGGAGTACTCGCTCCGGAGGGAAAAGTTATCAGGCCACTGCGGGGGTCTATACGTGAGGAAGAAGTGG
Q: With B4 as the binder, how does the Kd [4] read?
A: 18 nM

B5: bsA3 (ssDNA)
DNA: CCACTGCGGGGGTCTATACGTGAGGAAGAAGTGGGCAGGTCAAAAAAAAAAAAAAAGAGTGCGTAATGGTACGATTTGGGAAGTGGCTTGGGGTGGG
Q: Does B5 bind [5]?
A: binds

Q: Does GAGTGCGTAATGGTACGATTTGGGAAGTGGCTTGGGGTGGG (ssDNA) [-20CLN0004-23 (41mer, MS2, with G61)] bind [6]?
A: binds

B6: CLN0020 (ssDNA)
DNA: GGAGGGAAAAGTTATCAGGCCACTGCGGGGGTCTATACGTGAGGAAGAAGTGGGCAGGTCGATTAGTTTTGGAGTACTCGCTCC
Q: What does the source list for B6?
A: Kd [7]: 45 nM; binding result [8]: no binding

B7: bsA21 (ssDNA)
DNA: CCACTGCGGGGGTCTATACGTGAGGAAGAAGTGGGCAGGTCAAAAAAAAAAAAAAAGGAGGGAAAAGTTATCAGGCTGGATGGTAGCTCGGTCGGGGTGGGTGGGTTGGCAAGTCTGATTAGTTTTGGAGTACTCGCTCC
Q: Does B7 bind [1]?
A: binds

B8: CLN0003 (ssDNA)
DNA: GGAGGGAAAAGTTATCAGGCTGGATGGTAGCTCGGTCGGGGTGGGTGGGTTGGCAAGTCTGATTAGTTTTGGAGTACTCGCTCC
Q: Which Kd [9] does the source give for B8 here?
A: 0.091 nM

B9: CLN0123 (ssDNA)
DNA: GGAGGGAAAAGTTATCAGGCAGAGGGGAGGGTCGGGTATCGGCGTGTTCGGGGGATCTGCGATTAGTTTTGGAGTACTCGCTCC
Q: Does B9 bind [8]?
A: no binding

Q: And the Kd [10]?
A: 231 nM

B10: bsA9 (ssDNA)
DNA: GGAGGGAAAAGTTATCAGGCCACTGCGGGGGTCTATACGTGAGGAAGAAGTGGGCAGGTCGATTAGTTTTGGAGTACTCGCTCCGGAGGGAAAAGTTATCAGGCTGGATGGTAGCTCGGTCGGGGTGGGTGGGTTGGCAAGTCTGATTAGTTTTGGAGTACTCGCTCC
Q: Does B10 bind [1]?
A: binds

B11: bsA31 (ssDNA)
DNA: CCACTGCGGGGGTCTATACGTGAGGAAGAAGTGGGCAGGTCAAAAAAAAAAAAAAAGAGTGCGTAATGGTACGATTTGGGAAGTGGCTTGGGGTGGGATTAGTTTTGGAGTACTCGCTCC
Q: Which Kd [4] does the source give for B11 here?
A: 92 nM

Q: And the Kd [2]?
A: 24 nM

B12: bsA12 (ssDNA)
DNA: CCACTGCGGGGGTCTATACGTGAGGAAGAAGTGGGCAGGTCGATTAGTTTTGGAGTACTCGCTCCGGAGGGAAAAGTTATCAGGCGAGTGCGTAATGGTACGATTTGGGAAGTGGCTTGGGGTGGGATTAGTTTTGGAGTACTC
Q: B12 was tested. Which Kd [4] did it give?
A: 18 nM

B13: bsA17 (ssDNA)
DNA: CCACTGCGGGGGTCTATACGTGAGGAAGAAGTGGGCAGGTCGGAGGGAAAAGTTATCAGGCTGGATGGTAGCTCGGTCGGGGTGGGTGGGTTGGCAAGTCTGATTAGTTTTGGAGTACTCGCTCC
Q: What does the source list for B13?
A: Kd [11]: 0.352 nM; Kd [2]: 19 nM

B14: CLN0018 (ssDNA)
DNA: GGAGGGAAAAGTTATCAGGCATCACGTGGTGGGCAAATAACCGGTTGGGGTGGGTCGAGGGATTAGTTTTGGAGTACTCGCTCC
Q: What does the source list for B14?
A: Kd [12]: 38 nM; binding result [8]: no binding

B15: bsA16 (ssDNA)
DNA: GAGTGCGTAATGGTACGATTTGGGAAGTGGCTTGGGGTGGGATTAGTTTTGGAGTACTCGCTCCGGAGGGAAAAGTTATCAGGCAGAGGGGAGGGTCGGGTATCGGCGTGTTCGGGGGATCTGCGATTAGTTTTGGAGTACTCGCTCC
Q: B15 was tested. Which Kd [2] did it give?
A: 178 nM

B16: CLN0004 (ssDNA)
DNA: GGAGGGAAAAGTTATCAGGCGAGTGCGTAATGGTACGATTTGGGAAGTGGCTTGGGGTGGGATTAGTTTTGGAGTACTCGCTCC
Q: With B16 as the binder, how does the Kd [13] read?
A: 11 nM

B17: bsA18 (ssDNA)
DNA: CCACTGCGGGGGTCTATACGTGAGGAAGAAGTGGGCAGGTCATCAGGCGAGTGCGTAATGGTACGATTTGGGAAGTGGCTTGGGGTGGGATTAGTTTTGGAGTACTC
Q: Does B17 bind [5]?
A: binds

B18: bsA19 (ssDNA)
DNA: CCACTGCGGGGGTCTATACGTGAGGAAGAAGTGGGCAGGTCAAAAAAAAAAAAAAAGGAGGGAAAAGTTATCAGGCTGGATGGTAGCTCGGTCGGGGTGGGTGGGTTGGCAAGTCT
Q: Does B18 bind [5]?
A: binds

B19: bsA11 (ssDNA)
DNA: CCACTGCGGGGGTCTATACGTGAGGAAGAAGTGGGCAGGTCGATTAGTTTTGGAGTACTCGCTCCGGAGGGAAAAGTTATCAGGCTGGATGGTAGCTCGGTCGGGGTGGGTGGGTTGGCAAGTCTGATTAGTTTTGGAGTACTCGCTCC
Q: Does B19 bind [3]?
A: binds

Q: Does GAGTGCGTAATGGTACGATTTGGGAAGTGGCTTGGGGTGG (ssDNA) [CLN0004 without flanking sequences] bind [14]?
A: no binding

B20: bsA20 (ssDNA)
DNA: CCACTGCGGGGGTCTATACGTGAGGAAGAAGTGGGCAGGTCGGAGGGAAAAGTTATCAGGCTGGATGGTAGCTCGGTCGGGGTGGGTGGGTTGGCAAGTCT
Q: Which Kd [4] does the source give for B20 here?
A: 5 nM
